Publication PMC101404

Substrate: NCC(N)C(=O)O
Assay: purified protein
Assay type: biochemical, Salmonella enterica
Conditions: potassium phosphate pH 8.0, 28 °C, PLP, NADH, LDH coupling

B1: Diamino propionic acid (DAP) ammonia lyase (Salmonella enterica subsp. enterica serovar Typhimurium str. LT2) (protein)
chain: MHELIKYQFNTRRKKYGTGAALSLLNGNVGHEVLAFHKKLPNYAVTPLHNLAHLSQRLGLGSIHIKDESWRFGLNAFKGLGGSYAVGKYLADKLQCDINSLSFAALNTPEIKEKIKDCVFVTATDGNHGRGVAWAAEQLGLKAVVYMPKGSSLIRAENIRHHGAECTITDLNYDDAVRLAHRMAQTKGWVLLQDTAWTGYEEIPTWIMQGYMTLAVEAYEQLAETNSPLPTHLILQAGVGSFAGSVMGYFVEKMQENIPNIIVVEPHQANCLYQSAVMDDGQPHCVTGDMATIMAGLACGEPNIISWPIIRDNTSCFISADDCLAAKGMRISAAPRPGTDTPFISGESGAIGVGLLYELMNNMHYQDLANRLQLDASAHVLLISTEGDTSPDIYEDIVWNGRSA
  Km: 685 µM
